In PMC8826744:

Target: recombinant furin, biotinylated (UniProt P09958)
Test: BLI

recombinant furin, biotinylated, sequence (P09958 27-794): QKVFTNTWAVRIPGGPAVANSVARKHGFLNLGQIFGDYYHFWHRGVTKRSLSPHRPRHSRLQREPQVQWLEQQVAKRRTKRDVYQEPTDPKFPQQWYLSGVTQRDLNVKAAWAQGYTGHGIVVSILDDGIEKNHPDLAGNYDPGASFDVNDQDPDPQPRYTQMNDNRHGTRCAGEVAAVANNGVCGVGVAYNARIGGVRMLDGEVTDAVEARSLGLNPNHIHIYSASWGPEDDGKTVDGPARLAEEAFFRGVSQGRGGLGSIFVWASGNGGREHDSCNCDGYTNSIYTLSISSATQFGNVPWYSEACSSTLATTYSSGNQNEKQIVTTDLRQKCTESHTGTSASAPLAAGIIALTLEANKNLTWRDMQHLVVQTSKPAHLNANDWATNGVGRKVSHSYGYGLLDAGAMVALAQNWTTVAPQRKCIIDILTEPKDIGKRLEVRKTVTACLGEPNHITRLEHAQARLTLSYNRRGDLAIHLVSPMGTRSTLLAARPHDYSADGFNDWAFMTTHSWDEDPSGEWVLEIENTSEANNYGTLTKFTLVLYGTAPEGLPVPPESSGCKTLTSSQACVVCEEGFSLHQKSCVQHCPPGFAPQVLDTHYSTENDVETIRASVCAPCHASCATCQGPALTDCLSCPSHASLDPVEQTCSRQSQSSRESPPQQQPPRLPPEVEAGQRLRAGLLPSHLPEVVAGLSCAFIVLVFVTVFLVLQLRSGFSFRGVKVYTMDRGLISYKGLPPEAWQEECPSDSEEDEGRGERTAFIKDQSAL

farletuzumab-FuG1 (antibody) was tested, and the fold reduction of koff against farletuzumab-cFuG1 was 10 fold.
